# Measurements as given in the supplement of paper PMC6757056.
# ± gives the standard deviation of the averaged measurements.
# B1: library; a variant is named by its letters at N, in order (parent)
# chain: GCUGUCACCGGUGUAUUACCCUAGUGGUCGACCGGUCUGAUGAGUCUNNNNNNAGACGAAACAGC
# Assays:
# [1] = variants of: B1; assay: FACS-Seq fitted mean relative fluorescence mCherry/BFP without ligand (log10 relative fluorescence); ligand: hypoxanthine (xanthine aptamer); higher = higher reporter protein expression; details: HEK293T, ligand present: no
# Method in brief: (§1)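 HEK293T libraries were lentivirally transduced with an mCherry reporter carrying the ribozyme switch and an EF1α-BFP marker, enriched, and incubated for 48 h with or without ligand before sorting into 6 bins by mCherry/BFP. Genomic DNA from each bin was PCR-amplified, barcoded and sequenced on MiSeq. Fluorescence is the fitted normal mean of the bin counts. The fit used log10(mCherry/BFP), and means were scaled to five spiked-in control ribozymes.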
# [2] = variants of: B1; assay: normalized RNA/DNA level with ligand (relative to sTRSVctl = 100) (log10 (% of sTRSVctl)); ligand: hypoxanthine (xanthine aptamer); higher = less ribozyme self-cleavage, higher mRNA level; details: ligand concentration (+) RNA-Seq: 5 mM, HEK293T, reporter: mCherry (pCS4076), ligand present: yes
# Experimental: (§2)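 Hammerhead (sTRSV) ribozyme switch libraries with a ligand aptamer grafted on stem I and a randomized N4-6 loop II, cloned into the 3' UTR of mCherry and transiently transfected into HEK293T cells; RNA-Seq 72 h post transfection with ligand added 1 h before transfection; RNA read count / plasmid DNA read count normalized to the non-cleaving sTRSVctl (x100), log10; sequences with >100 DNA reads. FACS-Seq: lentiviral library sorted into 6 bins after 48 h ligand, log-normal fit mean of mCherry/BFP scaled to controls. Printed sequences are partial switch sequences.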
# [3] = variants of: B1; assay: normalized RNA/DNA level without ligand (relative to sTRSVctl = 100) (log10 (% of sTRSVctl)); ligand: hypoxanthine (xanthine aptamer); higher = less ribozyme self-cleavage, higher mRNA level; details: HEK293T, reporter: mCherry (pCS4076), ligand present: no
# Experimental: as §2
# [4] = variants of: B1; assay: FACS-Seq fitted mean relative fluorescence mCherry/BFP with ligand (log10 relative fluorescence); ligand: hypoxanthine (xanthine aptamer); ligand concentration (+) FACS-Seq: 5 mM; higher = higher reporter protein expression; details: HEK293T, ligand present: yes
# Method in brief: as §1
Variant,FACS-Seq fitted mean (log10) [1],normalized RNA/DNA level with ligand (log10) [2],normalized RNA/DNA level without ligand (log10) [3],FACS-Seq fitted mean (log10) [4]
GCUGUCACCGGUGUAUUACCCUAGUGGUCGACCGGUCUGAUGAGUCUGCAGAAAGACGAAACAGC,0.408 ± 0.02,1.88 ± 0.057,1.7 ± 0.031,0.472 ± 0.013
GCUGUCACCGGUGUAUUACCCUAGUGGUCGACCGGUCUGAUGAGUCUGCAGAUAGACGAAACAGC,-0.106 ± 0.1,1.92 ± 0.077,1.76 ± 0.031,-0.1997 ± 0.0017
GCUGUCACCGGUGUAUUACCCUAGUGGUCGACCGGUCUGAUGAGUCUGCAGAGAGACGAAACAGC,0.09517 ± 0.00035,1.78 ± 0.031,1.35 ± 0.051,0.558 ± 0.037
GCUGUCACCGGUGUAUUACCCUAGUGGUCGACCGGUCUGAUGAGUCUUCACUGAGACGAAACAGC,0.184 ± 0.08,1.89 ± 0.041,1.55 ± 0.012,0.463 ± 0.081
GCUGUCACCGGUGUAUUACCCUAGUGGUCGACCGGUCUGAUGAGUCUGCACCUAGACGAAACAGC,0.968 ± 0.14,1.942 ± 0.0073,1.94 ± 0.044,0.785 ± 0.08
GCUGUCACCGGUGUAUUACCCUAGUGGUCGACCGGUCUGAUGAGUCUUCACCGAGACGAAACAGC,0.705 ± 0.011,1.94 ± 0.027,1.7 ± 0.025,0.592 ± 0.045
GCUGUCACCGGUGUAUUACCCUAGUGGUCGACCGGUCUGAUGAGUCUUCACCUAGACGAAACAGC,0.67 ± 0.034,1.94 ± 0.037,1.94 ± 0.061,0.419 ± 0.013
GCUGUCACCGGUGUAUUACCCUAGUGGUCGACCGGUCUGAUGAGUCUCCAGAGAGACGAAACAGC,0.628 ± 0.021,1.95 ± 0.038,1.51 ± 0.066,0.741 ± 0.022
GCUGUCACCGGUGUAUUACCCUAGUGGUCGACCGGUCUGAUGAGUCUCCAGAAAGACGAAACAGC,0.561 ± 0.0022,1.94 ± 0.053,1.79 ± 0.053,0.631 ± 0.011
GCUGUCACCGGUGUAUUACCCUAGUGGUCGACCGGUCUGAUGAGUCUACACUGAGACGAAACAGC,0.4461 ± 0.0036,1.9 ± 0.021,1.42 ± 0.097,0.795 ± 0.052
GCUGUCACCGGUGUAUUACCCUAGUGGUCGACCGGUCUGAUGAGUCUCCACCCAGACGAAACAGC,0.2004 ± 0.0019,1.93 ± 0.044,1.93 ± 0.045,0.312 ± 0.0055
GCUGUCACCGGUGUAUUACCCUAGUGGUCGACCGGUCUGAUGAGUCUACACGGAGACGAAACAGC,-0.144 ± 0.07,1.79 ± 0.053,1.32 ± 0.041,0.465 ± 0.024
GCUGUCACCGGUGUAUUACCCUAGUGGUCGACCGGUCUGAUGAGUCUACACGAAGACGAAACAGC,-0.273 ± 0.0021,1.91 ± 0.062,1.73 ± 0.058,0.145 ± 0.0024
GCUGUCACCGGUGUAUUACCCUAGUGGUCGACCGGUCUGAUGAGUCUACACGUAGACGAAACAGC,0.624 ± 0.02,1.95 ± 0.079,1.823 ± 0.0069,0.572 ± 0.096
GCUGUCACCGGUGUAUUACCCUAGUGGUCGACCGGUCUGAUGAGUCUACAGAGAGACGAAACAGC,0.0524 ± 0.0076,1.79 ± 0.044,1.34 ± 0.041,0.353 ± 0.058
GCUGUCACCGGUGUAUUACCCUAGUGGUCGACCGGUCUGAUGAGUCUGCACUUAGACGAAACAGC,0.8516 ± 0.0035,1.965 ± 0.015,1.9 ± 0.068,0.751 ± 0.069
GCUGUCACCGGUGUAUUACCCUAGUGGUCGACCGGUCUGAUGAGUCUGCACUAAGACGAAACAGC,0.503 ± 0.091,1.939 ± 0.0064,1.81 ± 0.027,0.489 ± 0.08
GCUGUCACCGGUGUAUUACCCUAGUGGUCGACCGGUCUGAUGAGUCUGCACUGAGACGAAACAGC,0.25 ± 0.031,1.877 ± 0.012,1.45 ± 0.029,0.464 ± 0.011
GCUGUCACCGGUGUAUUACCCUAGUGGUCGACCGGUCUGAUGAGUCUCCACUGAGACGAAACAGC,0.339 ± 0.054,1.917 ± 0.012,1.8 ± 0.1,0.526 ± 0.076
GCUGUCACCGGUGUAUUACCCUAGUGGUCGACCGGUCUGAUGAGUCUGCACGGAGACGAAACAGC,-0.136 ± 0.023,1.86 ± 0.026,1.444 ± 0.009,0.376 ± 0.087
GCUGUCACCGGUGUAUUACCCUAGUGGUCGACCGGUCUGAUGAGUCUACACCCAGACGAAACAGC,0.129 ± 0.016,1.97 ± 0.1,1.87 ± 0.12,0.45298 ± 0.00015
